We go through two molecules from article PMC7615117, “DNSN-1 recruits GINS for CMG helicase assembly during DNA replication initiation in C. elegans” (Science (New York, N.Y.), 2023).

What all share (test): cryo-EM structure; CMG (125 nM) with fork DNA, AMP-PNP, TIM-1/TIPN-1 and DNSN-1 isoform c (each 1.3-fold molar excess), GraFix gradient with glutaraldehyde and BS3
In assay [1] the target is recombinant C. elegans DNSN-1 (C. elegans).
A further assay concerns the target T1, MCM-3 (C. elegans, UniProt Q9XVR7 1-812).
T1 construct: MCM-3, C. elegans; Subunit of m11, written alone for its contacts in the structure; also called MCM-3 subunit of MCM-2-7; source: S. cerevisiae, purified as part of recombinant CMG
T1 sequence: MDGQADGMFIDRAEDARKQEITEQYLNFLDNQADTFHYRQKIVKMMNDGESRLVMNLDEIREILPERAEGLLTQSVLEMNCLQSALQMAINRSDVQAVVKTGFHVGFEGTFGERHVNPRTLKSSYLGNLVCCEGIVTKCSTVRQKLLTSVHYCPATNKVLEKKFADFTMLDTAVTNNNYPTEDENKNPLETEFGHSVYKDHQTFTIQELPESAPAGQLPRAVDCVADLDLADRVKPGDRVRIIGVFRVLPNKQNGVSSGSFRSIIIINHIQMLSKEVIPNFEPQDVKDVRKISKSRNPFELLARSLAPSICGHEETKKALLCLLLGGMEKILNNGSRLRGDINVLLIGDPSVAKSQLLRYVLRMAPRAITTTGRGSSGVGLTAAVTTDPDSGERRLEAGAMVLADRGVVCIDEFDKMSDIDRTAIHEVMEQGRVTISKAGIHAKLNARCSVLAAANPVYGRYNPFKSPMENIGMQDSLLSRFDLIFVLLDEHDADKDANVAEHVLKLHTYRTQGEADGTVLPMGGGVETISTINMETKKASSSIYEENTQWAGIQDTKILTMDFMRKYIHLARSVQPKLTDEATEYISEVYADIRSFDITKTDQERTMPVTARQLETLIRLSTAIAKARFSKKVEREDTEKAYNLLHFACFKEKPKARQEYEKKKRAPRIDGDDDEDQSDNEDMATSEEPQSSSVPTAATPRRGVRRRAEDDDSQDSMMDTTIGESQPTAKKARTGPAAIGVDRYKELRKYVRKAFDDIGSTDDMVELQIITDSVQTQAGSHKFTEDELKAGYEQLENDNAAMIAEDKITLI
Particulars: both partners purified.

The next assay deals with T2, MCM-4 (C. elegans, UniProt Q95XQ8 1-823).
T2 construct: MCM-4, C. elegans; Subunit of m11, written alone for its interfaces in the structure; source: S. cerevisiae, purified as part of recombinant CMG
T2 sequence: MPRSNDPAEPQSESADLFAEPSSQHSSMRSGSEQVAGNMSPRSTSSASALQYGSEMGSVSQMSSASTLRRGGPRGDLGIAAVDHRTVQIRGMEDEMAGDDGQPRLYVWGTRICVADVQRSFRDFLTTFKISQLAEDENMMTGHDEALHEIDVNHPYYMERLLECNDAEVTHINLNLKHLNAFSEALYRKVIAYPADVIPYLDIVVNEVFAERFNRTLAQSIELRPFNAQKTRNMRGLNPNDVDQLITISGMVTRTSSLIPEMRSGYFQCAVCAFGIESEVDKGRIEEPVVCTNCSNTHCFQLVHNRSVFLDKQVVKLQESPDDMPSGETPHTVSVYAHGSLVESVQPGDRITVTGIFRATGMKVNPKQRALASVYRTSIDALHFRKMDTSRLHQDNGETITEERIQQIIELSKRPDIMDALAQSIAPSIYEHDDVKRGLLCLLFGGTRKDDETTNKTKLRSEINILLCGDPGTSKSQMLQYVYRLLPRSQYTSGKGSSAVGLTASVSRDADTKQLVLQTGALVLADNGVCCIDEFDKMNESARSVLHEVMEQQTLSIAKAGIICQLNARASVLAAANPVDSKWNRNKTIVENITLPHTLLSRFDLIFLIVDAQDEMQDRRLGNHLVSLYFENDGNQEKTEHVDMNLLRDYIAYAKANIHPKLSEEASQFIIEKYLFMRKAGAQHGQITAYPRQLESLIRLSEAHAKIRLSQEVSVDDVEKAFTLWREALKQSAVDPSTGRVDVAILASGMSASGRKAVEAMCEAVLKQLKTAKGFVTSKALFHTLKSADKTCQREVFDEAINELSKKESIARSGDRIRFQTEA
Particulars: both partners purified.

As to “recombinant C. elegans DNSN-1 (natural protein)”, the stoichiometry N in assay [1] was found to be 2.

B1: MCM-7 (natural protein, C. elegans)
chain: MKTTTYNTDWAAEKTKIRSFFDEYYVDNEDGSGKAFPYRDQVFEIARRDKQAIVVNVDHIKESDIPDALELSEAITSNTKRYEVLFKDTISDMIQDYLGDKQAPVIDALDAYMFQRLHMDRNEGAANEEVSLQDKRKKYPPQLLQRFEVYFTTDDAAHETCVRNIKATEIGHLVSMKGVVIRATEVKPCVEVMTYTCDTCAAEVYQPVKGMQFTPPVNCPNKECVEAKANGRLHMQLRGSKFVKFQELKIQELSEQVPVGSIPRTMTVHVYGEMTRKCNTGNVVHVSGVFLPIMQSGFRPTGGLVADTYLEAHYINNLDDNPTFNGVQSAELEVLRRKGDNYETLAASIAPEIFGHVDVKKCLLMALVGGNDNSSNGMKIRGCINVLMMGDPGVAKSQLLGYVNRLAPRSQYTTGRGSSGVGLTAAVMKDPVTGEMSLEGGALVLADGGICCIDEFDKMMDHDRTAIHEVMEQQTISIAKAGIMTTLNARTAIIAAANPAYGRYNPNRSIEQNVDLPAALLSRFDLILLMQDKADRENDKILAEHITYVHQHGCHPNREKKDLISLETLREYISLCKTYTPTVDPALRERIVEAYVEMRRDARYSSDPTFVSPRMILGIVRMATARAKLRLSTIVDESDVEEALRLMQFAKDSLRPEQNKIEKRMAPVDAAFAVLRELYHADNAPIAISNAIQRCARKGISEVALKKCLDQYTANGLLVMDRQNIVFAMN
notes: MCM-7, C. elegans; Subunit of m11, written alone for its interfaces in the structure; source: S. cerevisiae, purified as part of recombinant CMG
B1: the binding result with MCM-3 and in the assay with MCM-4 was “binds” each time.
